This is an account of results in patent US5681715.

Assay [1] addresses LipA lipase of Pseudomonas cepacia DSM 3959 produced in E. coli from pAHE2 or pAHE10 (inclusion bodies) (Pseudomonas cepacia DSM 3959) (UniProt P22088).
The target is the same in assay [2]. This is another data set of the same source.
Assay [3] deals with intracellular prelipase from P. cepacia DSM 3959 (Pseudomonas cepacia DSM 3959) (UniProt P22088).
For assay [4], the target named is mature, extracellular lipase from P. cepacia DSM 3959 (Pseudomonas cepacia DSM 3959) (UniProt P22088).
Assay [5] addresses mature LipA produced in E. coli without signal peptide (pAHE19, pAHE22) (Pseudomonas cepacia DSM 3959) (UniProt P22088).
For assay [6], the target named is LipD, lipase from P. cepacia DSM 3401 (Pseudomonas cepacia DSM 3401).
The target is the same in assay [7]. This is another data set of the same source.
The target in assay [8] is LipA-LipD hybrid lipase (pAHE16, pAHE23) (Pseudomonas cepacia DSM 3959; Pseudomonas cepacia DSM 3401) (UniProt P22088).

As for “LimA, Pseudomonas cepacia lipase modulator (chaperone molecule) from P. cepacia DSM 3959 (from UniProt P22089)”, the No of LU recovered after denaturation and renaturation (pH stat), inclusion bodies undiluted in assay [1] turned out to be 16 LU. Further, the No of lipase units recovered after denaturation and renaturation, inclusion bodies diluted 1:10 in assay [2] worked out at 7.8 LU. Besides, the LU after renaturation came out at 0 LU in assay [3], 1.3 LU in assay [4], 0.75 LU in assay [5] and 1 LU in assay [8]. In assay [6], this substance gave a No of LU recovered (+UREA) and % recovery after denaturation and renaturation, first preparation of 0.45 LU. The substance further showed an LU after renaturation and % recovery, new preparation in assay [7] of 56 LU.
